In patent US9217139B2, “Extracellularly secreted nuclease” (JAPAN AGENCY FOR MARINE-EARTH SCIENCE AND TECHNOLOGY, priority 2010, dated 2015):

How the values were obtained:
[1] = thermal stability test (residual activity); assay type: biochemical; conditions: heat treatment 30 minutes, 20 mM Tris/HCl pH 8.5, 1 mM MgCl2, 1 mM CaCl2; ice bath = 100 percent
Method: After heat treatment was conducted for 30 minutes at each temperature in 20 mM of Tris/HCl at pH 8.5 that contained 1 mM of MgCl2 and 1 mM of CaCl2, the residual activity was measured (referring to FIG. 6). An activity of an enzyme stored in an ice bath was regarded as 100 percent.

[2] = tested on: salmon DNA (double-stranded DNA) and thermally-denatured DNA (single-stranded DNA); experiment: reactivity test for single-stranded and double-stranded DNA; assay type: biochemical; conditions: 15-minute standard specific activity measurement method
Method: With the use of a 15-minute standard specific activity measurement method, the reactivity of each enzyme was tested for salmon DNA (double-stranded DNA) that was dissolved at low temperatures, as well as for the same DNA (single-stranded DNA) that had been subjected to thermal denaturation at 95 degrees Celsius for 10 minutes. […] That is, it can be said that NucL is an enzyme that efficiently works on single-stranded DNA.

[3] = tested on: linear double-stranded DNA (pUC18 plasmid cut by BamHI, SacI, SmaI); experiment: degradation pattern of linear double-stranded DNA; assay type: biochemical; conditions: for degradation of linear double-stranded DNA regardless of the structure of DNA strand ends: 5'-protruding, 3'-protruding and flush ends; for efficiency of degradation of linear double-stranded DNA compared with circular DNA: comparison of FIGS. 12, 16, 17
Excerpt: With the use of the standard specific activity measurement method, as well as of a substrate obtained by making circular DNA (pUC18 plasmid) linear by using restriction nucleases BamHI (which generates a 5′-protruding end), SacI (which generates a 3′-protruding end), and SmaI (which generates a flush end), a degradation reaction took place with the use of NucS and NucL (referring to FIGS. 16 and 17).
Given the above results, it is presumed that NucL has a reaction style called an endo-exo type.

[4] = tested on: Deoxyribonucleic acid sodium salt from salmon testes; experiment: effects of pH on enzyme activity; assay type: biochemical; conditions: 25 degrees Celsius, 15 minutes, 1 mM MgCl2, 1 mM CaCl2
Method: At each level of pH, the nucleic-acid degradation activity was measured at 25 degrees Celsius for 15 minutes by using, as substrate, Deoxyribonucleic acid sodium salt from salmon testes 0.4 mg/mL (manufactured by Sigma-Aldrich; Cat no. D1626-1G) in 20 mM of the following solution containing 1 mM of MgCl2 and 1 mM of CaCl2: 2-morpholino ethanesulfonic acid; monohydrate/NaOH(MES, pH 5.5 to 7.0); 3-morpholino propanesulfonic acid/NaOH (MOPS, pH 7 to 8); N-tris(hydroxymethyl)methyl-3-aminopropanesulfonic acid/NaOH (TAPS, pH 8 to 9); N-cyclohexyl-2-aminoethanesulfonic acid/NaOH (CHES, pH 9 to 9.5); or N-cyclohexyl-3-aminopropanesulfonic acid/NaOH (CAPS, 9.5 to 10).

[5] = tested on: circular DNA (pUC18 plasmid); experiment: reaction styles in initial stage of degradation of circular DNA; assay type: biochemical
Method: According to the standard specific activity measurement method, reaction styles in an initial stage of degradation reaction for circular DNA (pUC18 plasmid) of NucS and NucL were analyzed (referring to FIGS. 14 and 15). […] The degradation of circular plasmid DNA executed by the single strand-specific nucleolytic enzyme is considered to proceed as the molecular weight degreases due to accumulation of endo-type cleavage of single strands.

[6] = isoelectric point by Novex IEF pH-3-10 gel; assay type: physicochemical
Method: The molecular weight was measured by gel filtration chromatography with the use of Superdex G75 (manufactured by GE Healthcare). An elution position corresponding to a molecular weight of about 16 kDa was confirmed as a peak top from a column. Since the value was much coincident with a molecular weight (about 17 to 21 kDa) of an enzyme produced on SDS-PAGE, it can be determined that NucS exists as monomer. The isoelectric point was measured by using Novex (Registered Trademark) IEF pH-3-10 gel (manufactured by Invitrogen); and pl was 10.
The specific activity of NucL was 5.6×10^4 U/mg-protein at 37 degrees Celsius in 20 mM of Tris/HCl at pH 8.5 that contains 1 mM of MgCl2 and 1 mM of CaCl2. The isoelectric point was measured by using Novex (Registered Trademark) IEF pH-3-10 gel (manufactured by Invitrogen); and then pl was 7.0. Then, it was determined that a N-terminal amino acid sequence of the purified enzyme was DSVRIHDIQGTTR. The sequence matched 12 out of 13 amino acids of putative protein (putative secreted hydrolase) coded on a genome of Streptomyces scabiei 87.22, and of putative protein (large secreted protein) coded on a genome of S. avermitilis MA-4680.

| Molecule | temperature until which the enzyme remained stable [1] [degrees Celsius] | efficiency of degrading thermally-denatured DNA compared with native DNA [2] | degradation of linear double-stranded DNA regardless of the structure of DNA strand ends [3] | efficiency of degradation of linear double-stranded DNA compared with circular DNA [3] | optimum reaction pH [4] | reaction style in initial stage of degradation of circular DNA [5] | isoelectric point (pl) [6] | reaction style presumed from linear DNA degradation [3] |
| --- | --- | --- | --- | --- | --- | --- | --- | --- |
| NucS: low-molecular-weight nucleolytic enzyme, about 17 to 21 kDa, secreted by Streptomyces sp. MBE174; SEQ ID NO. 3 (protein, Streptmyces sp. MBE174) MPKLYARRRFAVLAALTGLIASAGLFHGPAASAALPTPVSAATARGYLASLKVAPENRTGYKRDLFPHWITQSGTCNTRETVLKRDGTNVVTDAACAATSGSWYSPFDGATWTAASDVDIDHLVPLAEAWDSGASAWTTAQRQAFANDLTRPQLLAVTDTVNQSKGDKDPAEWMPPRAAYHCTYVRAWVQVKYYYGLSVDTAEKTALTNRLAGC | ≤ 45 | at the same level of efficiency | can degrade | at the same level of efficiency | around 8.5 | degradation activity of an endo-type style | 10 | – |
| NucL: nucleolytic enzyme of about 66.5 kDa secreted by Streptomyces sp. MBE174; SEQ ID NO. 4 (protein, Streptmyces sp. MBE174) MASQSVTRLAALTVAATCSAASVVVLGPPAHADSVRIHDIQGTTRISPYAGRQVADVPGVVTGVRDHGSSRGFWFQDPRPDDDPATSEGVFVFTGSAPGVEAGDAVTVSGTVSEFVPGGTASGNQSLTEITRPTVTVVSRGNPVPDPVVVSARSVPHAYAPAGDAAANGSVNALPLRPDRYALDYYESLEGMNVQVADARVVGATDPYTELWVTVKPGENASPRGGTVYGSRDAQNTGRLQIQTLGVPAGFPAADVGDTLAGATTGPLDYNQFGGYTLVARSLGTLTAGGLARETTREQHRDELSVATYNVENLDPSDGTFAAHAEAIVRNLRSPDIVSLEEIQDDNGATDDGTVTAGVTVGKLIDAVVAAGGPRYDWRSVDPVDKADGGQPGGNIRQVFLFDPRRVSFADRPGGDAVTATGVVKVRGKAALTHSPGRVDPANPAWLNSRKPLAGEFSFRGRTVFVIANHFASKGGDQGLTSQYQPPARSSETQRHLQATAVNTFVKQILAVQKNADVIALGDINDFEFSGTTERLEAGGALWSAVRSLPPGERYSYVYQGNSQVLDQILVSPSIRRGHLSYDSVHINAEFHDQISDHDPQVLRYRP | ≤ 35 | about five times higher | can degrade | more efficiently | around 8.8 | reaction pattern similar to a single strand-specific, endo-type nucleolytic enzyme | 7.0 | endo-exo type |
